Starred links: 1 amine or outer side, 2 acyl side, 3 side chain; linkers in the order of their positions; H or OH if unused. Non-standard residues stand in square brackets, D forms with d. Residues, ends and D or L forms follow the SMILES beside them. Groups on a side chain read outwards from the residue. No end group written: not given here. *: point of attachment. C18 diacid = O=C(O)CCCCCCCCCCCCCCCCC(=O)*; C16 diacid = O=C(O)CCCCCCCCCCCCCCC(=O)*; γGlu = O=C(O)[C@H](CCC(=O)[*:2])N[*:1]; AEEA = NCCOCCOCC(=O)O; Aib = CC(C)(N)C(=O)O
B1: peptide of SEQ ID NO: 190 (peptide)
peptide: IVLSLD[dV]PIKLK([γGlu-C16 diacid])QILLKQERQKKQREQAEKNKQILEQV-NH2
modifications: N-terminus assumed
SMILES: CC[C@H](C)[C@H](N)C(=O)N[C@H](C(=O)N[C@@H](CC(C)C)C(=O)N[C@@H](CO)C(=O)N[C@@H](CC(C)C)C(=O)N[C@@H](CC(=O)O)C(=O)N[C@@H](C(=O)N1CCC[C@H]1C(=O)N[C@H](C(=O)N[C@@H](CCCCN)C(=O)N[C@@H](CC(C)C)C(=O)N[C@@H](CCCCNC(=O)CC[C@H](NC(=O)CCCCCCCCCCCCCCC(=O)O)C(=O)O)C(=O)N[C@@H](CCC(N)=O)C(=O)N[C@H](C(=O)N[C@@H](CC(C)C)C(=O)N[C@@H](CC(C)C)C(=O)N[C@@H](CCCCN)C(=O)N[C@@H](CCC(N)=O)C(=O)N[C@@H](CCC(=O)O)C(=O)N[C@@H](CCCNC(=N)N)C(=O)N[C@@H](CCC(N)=O)C(=O)N[C@@H](CCCCN)C(=O)N[C@@H](CCCCN)C(=O)N[C@@H](CCC(N)=O)C(=O)N[C@@H](CCCNC(=N)N)C(=O)N[C@@H](CCC(=O)O)C(=O)N[C@@H](CCC(N)=O)C(=O)N[C@@H](C)C(=O)N[C@@H](CCC(=O)O)C(=O)N[C@@H](CCCCN)C(=O)N[C@@H](CC(N)=O)C(=O)N[C@@H](CCCCN)C(=O)N[C@@H](CCC(N)=O)C(=O)N[C@H](C(=O)N[C@@H](CC(C)C)C(=O)N[C@@H](CCC(=O)O)C(=O)N[C@@H](CCC(N)=O)C(=O)N[C@H](C(N)=O)C(C)C)[C@@H](C)CC)[C@@H](C)CC)[C@@H](C)CC)C(C)C)C(C)C
B2: peptide of SEQ ID NO: 189 (peptide)
peptide: IVLSLD[dV]PIKLK([γGlu-C16 diacid])QILLKQERQKK[Aib]RQKAEKNKQILAQV-NH2
modifications: N-terminus assumed
SMILES: CC[C@H](C)[C@H](N)C(=O)N[C@H](C(=O)N[C@@H](CC(C)C)C(=O)N[C@@H](CO)C(=O)N[C@@H](CC(C)C)C(=O)N[C@@H](CC(=O)O)C(=O)N[C@@H](C(=O)N1CCC[C@H]1C(=O)N[C@H](C(=O)N[C@@H](CCCCN)C(=O)N[C@@H](CC(C)C)C(=O)N[C@@H](CCCCNC(=O)CC[C@H](NC(=O)CCCCCCCCCCCCCCC(=O)O)C(=O)O)C(=O)N[C@@H](CCC(N)=O)C(=O)N[C@H](C(=O)N[C@@H](CC(C)C)C(=O)N[C@@H](CC(C)C)C(=O)N[C@@H](CCCCN)C(=O)N[C@@H](CCC(N)=O)C(=O)N[C@@H](CCC(=O)O)C(=O)N[C@@H](CCCNC(=N)N)C(=O)N[C@@H](CCC(N)=O)C(=O)N[C@@H](CCCCN)C(=O)N[C@@H](CCCCN)C(=O)NC(C)(C)C(=O)N[C@@H](CCCNC(=N)N)C(=O)N[C@@H](CCC(N)=O)C(=O)N[C@@H](CCCCN)C(=O)N[C@@H](C)C(=O)N[C@@H](CCC(=O)O)C(=O)N[C@@H](CCCCN)C(=O)N[C@@H](CC(N)=O)C(=O)N[C@@H](CCCCN)C(=O)N[C@@H](CCC(N)=O)C(=O)N[C@H](C(=O)N[C@@H](CC(C)C)C(=O)N[C@@H](C)C(=O)N[C@@H](CCC(N)=O)C(=O)N[C@H](C(N)=O)C(C)C)[C@@H](C)CC)[C@@H](C)CC)[C@@H](C)CC)C(C)C)C(C)C
B3: peptide of SEQ ID NO: 187 (peptide)
peptide: IVLSLD[dV]PIKLK([γGlu-C16 diacid])QILLKQERQK[Aib]QREQAEKNKQILAQV-NH2
modifications: N-terminus assumed
SMILES: CC[C@H](C)[C@H](N)C(=O)N[C@H](C(=O)N[C@@H](CC(C)C)C(=O)N[C@@H](CO)C(=O)N[C@@H](CC(C)C)C(=O)N[C@@H](CC(=O)O)C(=O)N[C@@H](C(=O)N1CCC[C@H]1C(=O)N[C@H](C(=O)N[C@@H](CCCCN)C(=O)N[C@@H](CC(C)C)C(=O)N[C@@H](CCCCNC(=O)CC[C@H](NC(=O)CCCCCCCCCCCCCCC(=O)O)C(=O)O)C(=O)N[C@@H](CCC(N)=O)C(=O)N[C@H](C(=O)N[C@@H](CC(C)C)C(=O)N[C@@H](CC(C)C)C(=O)N[C@@H](CCCCN)C(=O)N[C@@H](CCC(N)=O)C(=O)N[C@@H](CCC(=O)O)C(=O)N[C@@H](CCCNC(=N)N)C(=O)N[C@@H](CCC(N)=O)C(=O)N[C@@H](CCCCN)C(=O)NC(C)(C)C(=O)N[C@@H](CCC(N)=O)C(=O)N[C@@H](CCCNC(=N)N)C(=O)N[C@@H](CCC(=O)O)C(=O)N[C@@H](CCC(N)=O)C(=O)N[C@@H](C)C(=O)N[C@@H](CCC(=O)O)C(=O)N[C@@H](CCCCN)C(=O)N[C@@H](CC(N)=O)C(=O)N[C@@H](CCCCN)C(=O)N[C@@H](CCC(N)=O)C(=O)N[C@H](C(=O)N[C@@H](CC(C)C)C(=O)N[C@@H](C)C(=O)N[C@@H](CCC(N)=O)C(=O)N[C@H](C(N)=O)C(C)C)[C@@H](C)CC)[C@@H](C)CC)[C@@H](C)CC)C(C)C)C(C)C

Tests used:
[1] = Effect on blood pressure, telemetry (Example 17); assay type: in vivo; settings: Sprague Dawley rats, 0.1 mg/kg SC
How it was run: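 Sprague Dawley rats with an aortic-catheter telemetry implant, recovered at least 2 weeks, given compound or vehicle at 0.1 mg/kg SC. HR, SBP, DBP and MBP recorded continuously for 48 h. Each 4-hour post-dose mean was compared with a 1-hour pre-dose basal mean.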

[2] = biological target: human corticotropin-releasing factor 2α (CRF2α receptor) (human), Q13324; experiment: cell-based or functional assay
human corticotropin-releasing factor 2α (CRF2α receptor) (human), Q13324, sequence (Q13324 20-411): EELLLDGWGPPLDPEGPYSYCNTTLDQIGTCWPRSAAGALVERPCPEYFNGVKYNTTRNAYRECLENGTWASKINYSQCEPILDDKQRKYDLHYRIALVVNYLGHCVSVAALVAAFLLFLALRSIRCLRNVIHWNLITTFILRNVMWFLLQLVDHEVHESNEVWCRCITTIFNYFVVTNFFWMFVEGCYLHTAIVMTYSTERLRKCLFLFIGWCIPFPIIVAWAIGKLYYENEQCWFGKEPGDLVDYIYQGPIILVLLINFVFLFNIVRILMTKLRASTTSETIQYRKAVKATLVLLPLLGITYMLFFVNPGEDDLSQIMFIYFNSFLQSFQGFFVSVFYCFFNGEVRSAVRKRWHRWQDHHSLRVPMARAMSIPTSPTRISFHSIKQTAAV

[3] = biological target: human corticotropin-releasing factor 2α receptor (CRF2α receptor) (human), Q13324; experiment: cell-based or functional assay
human corticotropin-releasing factor 2α receptor (CRF2α receptor) (human), Q13324, sequence (Q13324 20-411): as above

Molecule | Duration (h): last time point for which a significant effect on BP was still seen [1] | Effect on Systolic Pressure % change from baseline 8 h ([1]; 8 h) | Effect on Systolic Pressure % change from baseline 24 h ([1]; 24 h) | EC50 [nM], 0% HSA (cAMP, HTRF) [2] | CRF2 EC50 (cAMP, HTRF) [3]
CC[C@H](C)[C@H](N)C(=O)N[C@H](C(=O)N[C@@H](CC(C)C)C(=O)N[C@@H](CO)C(=O)N[C@@H](CC(C)C)C(=O)N[C@@H](CC(=O)O)C(=O)N[C@H](C(=O)N1CCC[C@H]1C(=O)N[C@H](C(=O)N[C@@H](CCCCN)C(=O)N[C@@H](CC(C)C)C(=O)N[C@@H](CCCCNC(=O)COCCOCCNC(=O)COCCOCCNC(=O)CC[C@H](NC(=O)CCCCCCCCCCCCCCCCC(=O)O)C(=O)O)C(=O)N[C@@H](CCC(N)=O)C(=O)N[C@H](C(=O)N[C@@H](CC(C)C)C(=O)N[C@@H](CC(C)C)C(=O)N[C@@H](CCCCN)C(=O)N[C@@H](CCC(N)=O)C(=O)N[C@@H](CCC(=O)O)C(=O)N[C@@H](CCCNC(=N)N)C(=O)N[C@@H](CCC(N)=O)C(=O)N[C@@H](CCCCN)C(=O)N[C@@H](CCCCN)C(=O)NC(C)(C)C(=O)N[C@@H](CCCNC(=N)N)C(=O)N[C@@H](CCC(=O)O)C(=O)N[C@@H](CCC(N)=O)C(=O)N[C@@H](C)C(=O)N[C@@H](CCC(=O)O)C(=O)N[C@H](C(=O)N[C@@H](CC(N)=O)C(=O)N[C@@H](CCCCN)C(=O)N[C@@H](CCCNC(=N)N)C(=O)N[C@H](C(=O)N[C@@H](CC(C)C)C(=O)N[C@@H](CCC(=O)O)C(=O)N[C@@H](CCCNC(=N)N)C(=O)N[C@H](C(N)=O)C(C)C)[C@@H](C)CC)[C@@H](C)O)[C@@H](C)CC)[C@@H](C)CC)C(C)C)C(C)C [SEQ ID NO: 152, IVLSLDVPIKLK*QILLKQERQKKAibREQAETNKRILERV-NH2] (H-IVLSLDVPIKLK([AEEA-AEEA-γGlu-C18 diacid])QILLKQERQKK[Aib]REQAETNKRILERV-NH2) | 20 h | −8.6% | −6.0% |  | 
B1 |  |  |  | 2.47 nM | 2.47 nM
B2 |  |  |  | 3.49 nM | 3.49 nM
B3 |  |  |  | 0.44 nM | 0.44 nM

Reference: patent US12679878B2, “CRF2 receptor agonists and their use in therapy” (SANOFI, priority 2020, dated 2026)
